The values that follow are results of earlier work, collected in patent US8765467B2, “Multicellular compositions of pluripotent human embryonic stem cells and cancer cells” (Technion Research and Development Foundation Ltd., priority 2003, dated 2014).

For one series, the system named is tumors. To be noted: tumors grown in immunocompromised mice; literature (Folkman 2002).
Series [1] concerns human B-lineage acute lymphoblastic leukemia (B-ALL). The settings on record: human B-ALL engrafted within marrow of immunodeficient mice; literature (Eisterer et al 2002).

B1: Endostatin (protein, UniProt P39060 1572-1754, looked up)
Endostatin: HSHRDFQPVLHLVALNSPLSGGMRGIRGADFQCFQQARAVGLAGTFRAFLSSRLQDLYSIVRRADRAAVPIVNLKDELLFPSWEALFSGSEGPLKPGARIFSFDGKDVLRHPTWPQKSVWHGSDPNGRRLTESYCETWRTEAPSATGQASSLLGGRLLGQSAASCHHAYIVLCIENSFMTASK
modifications: Endostatin
notes: antiangiogenic agent cited from the literature
For the molecule B1, in the series with tumors, the anti-angiogenic activity entry is “potent anti-angiogenic agent”. Further, the inhibitory effect result in series [1] is on record as “did not exhibit any inhibitory effect”.
